Each block holds one molecule with its values, some of them ahead of it. Where no end group is shown, it is not given here.
Columns and labels:
[1] = test system: tumor cells from CLL patients; assay: 51Chromium release assay on tumor cells from CLL patients; assay type: cell-based, human; conditions: CTL induction with the peptide
Experimental: For the induction of OFA/iLR peptide-specific CTL obtained from patients with CLL CDS^+ T cells were separated from PBMC using immunomagnetic beads (MACS®, Miltenyi, Bergisch-Gladbach, Germany) and co-cultured with autologous irradiated OFA/iLR peptide-pulsed CD8^+/CD4^+-depleted PBMC. CTL were weekly restimulated with autologous irradiated peptide-pulsed CD8^+ICD4^+-depleted PBMC in the presence of IL-2 (20IU/ml; CellConcepts, Weisskirch, Germany) and IL-7 (10ng/ml; PeproTech, Hamburg, Germany). After at least four weekly restimulations, CTL reactivity was determined in a conventional 4h ^51Chromium release assay. Antibody blocking experiments were performed as previously described (Zeis M, Siegel S, Schmitz M et al. Induction of cytotoxic T lymphocytes against hematologic neoplasms by survivin RNA-transfected dendritic cells. J Immunol. 2003; 170, 5391-5397).
T cells specific for HLA-A* 02-restricted iLR-ASK-a2 peptide were tested in a standard ^51Chromium release assay on tumor cells from CLL patients.

[2] = biological target: T1, HLA-A*0201 molecule on the TAP-deficient T2 cell line (human); assay: T2 binding assay
T1 construct: whole, on cells; MHC class I on T2 cells, loaded with peptide from outside; also called HLA-A2-molecule; HLA-A*02-molecule

[3] = biological target: T1, HLA-A*0201 molecule on the …; assay: T2 binding assay, compared with the native peptide SEQ ID No. 2

Molecule: VAIENPADV [natural processed iLR66-74 peptide]
cytotoxicity obtained by stimulation of patients PBMC with the peptide [1]: no cytotoxicity

binding result [2]: binds
B1: native iLR66-74, naturally processed OFA/iLR peptide (VAIENPADV) (peptide)
peptide: VAIENPADV
notes: Synthetic 9-mer; also called naturally processed iLR peptide; naturally processed peptide

binding result [3]: binds
B2: iLR-ASK-A2 66-74 modified OFA/iLR peptide (VLIENPADV) (peptide)
peptide: VLIENPADV
notes: It is OFA/iLRP AA66-AA74 with the second residue changed from Ala to Leu; also called modified peptide
